Reference: patent US20120251547A1 (Amgen, published 2012)
Numbering of substitutions follows the chain as printed. Values belong to the binder of their own block, whether it stands above or below them.

Tests used:
huIL-17RA-FLAG-polyHis [1] = biological target: T1, huIL-17RA-FLAG-polyHis (human, UniProt Q96F46 33-320); experiment: binning; IL-17RA held by bead mAb B
T1 construct: also called IL-17RA-FLAG-pHis; wild-type IL-17RA

huIL-17RA-FLAG-polyHis [2] = biological target: T1, huIL-17RA-FLAG-polyHis; experiment: binning; IL-17RA held by bead mAb G
Protocol: (§1) The method employed the Bio-Plex Workstation and software (BioRad, Hercules, Calif.), as well as reagents from Luminex® Corp. (Austin, Tex.). […] The mouse-anti-human IgG coating was evaluated and the beads quantified by FACS. Each bead code was separately incubated with 10 ul of anti-IL-17RA antibody for 1 hour at room temperature and then washed. The beads were pooled and then dispensed to a 96-well filter plate (Millipore, Billerica, Mass., product #MSBVN1250). […] The PE-tagged monovalent antibody will detect the presence of the second mAb added to the well, but not the first mAb captured by the monovalent mouse-anti-human IgG antibody. Beads were resuspended in 120u1 PBSAT and at least 100 events/bead code were collected on the Bio-Plex workstation as per the manufacturer's recommended protocol.

chimera D = biological target: T2, chimera D; experiment: Bio-Plex titration on His-captured chimera;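 further: binding of anti-IL-17RA antibodies (4-fold titration across about 5 logs, 1 h) to His-captured IL-17RA chimeras on multiplexed beads, MFI read as percent of maximal wild-type human IL-17RA signal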
T2 construct: human IL-17RA extracellular domain with mouse Domain D; column head 176-197; also called Construct D
Protocol: (§2) Twelve bead codes of pentaHis-coated beads (Qiagen, Valencia, Calif.; see wwwl.qiagen.com) were used to capture histidine-tagged protein. The 12 bead codes allowed the multiplexing of 11 chimeric and the wild type human IL-17RA.
(§3) The beads were washed as per the manufacturer's protocol and the 12 bead set was pooled and aliquoted into 2 or 3 columns of a 96-well filter plate (Millipore, Billerica, Mass., product #MSBVN1250) for duplicate or triplicate assay points, respectively. 100 ul anti-IL-17RA antibodies in 4-fold dilutions were added to the wells, incubated for 1 hour at room temperature, and washed. […] Beads were resuspended in 1% BSA, shaken for 3 minutes, and read on the Bio-Plex workstation. Antibody binding to IL-17RA chimeric protein was compared to antibody binding to the human IL-17RA wild-type from the same pool. A titration of antibody over approximately a 5 log scale was performed. Median Fluorescence Intensity (MFI) of chimeric proteins was graphed as a percent of maximum wild-type human IL-17RA signal.
T2 IL-17RA extracellular domain with FLAG-polyHis tag: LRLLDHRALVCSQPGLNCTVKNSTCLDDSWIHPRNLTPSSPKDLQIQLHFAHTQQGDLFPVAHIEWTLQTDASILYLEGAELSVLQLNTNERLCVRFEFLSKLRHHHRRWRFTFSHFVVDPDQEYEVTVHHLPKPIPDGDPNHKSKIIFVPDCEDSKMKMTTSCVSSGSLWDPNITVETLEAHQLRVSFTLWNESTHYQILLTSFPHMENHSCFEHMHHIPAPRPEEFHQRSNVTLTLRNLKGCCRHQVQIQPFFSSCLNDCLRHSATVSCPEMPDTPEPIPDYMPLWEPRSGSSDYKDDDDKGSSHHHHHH

chimera J = biological target: T3, chimera J; experiment: Bio-Plex titration on His-captured chimera;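 further: binding of anti-IL-17RA antibodies (4-fold titration across about 5 logs, 1 h) to His-captured IL-17RA chimeras on multiplexed beads, MFI read as percent of maximal wild-type human IL-17RA signal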
T3 construct: human IL-17RA extracellular domain with mouse Domains D and E; column head D+E; also called Construct J
Protocol: as §2, §3

chimera L = biological target: T4, chimera L; experiment: Bio-Plex titration on His-captured chimera; cell bold in heavy box (shaded: lost binding)
T4 construct: human IL-17RA extracellular domain with mouse Domains B and F; B+F; also called Construct L
Protocol: as §2, §3

chimera K [3] = biological target: T5, chimera K; experiment: as above
T5 construct: human IL-17RA extracellular domain with mouse Domains A and F; also called Construct K
Protocol: as §2, §3

chimera M [4] = biological target: T6, chimera M; experiment: as above
T6 construct: human IL-17RA extracellular domain with mouse Domains C and F; also called Construct M
Protocol: as §2, §3

huIL-17RA-FLAG-polyHis [5] = biological target: T1, huIL-17RA-FLAG-polyHis; experiment: binning; IL-17RA held by bead mAb H
huIL-17RA-FLAG-polyHis [6] = biological target: T1, huIL-17RA-FLAG-polyHis; experiment: binning; IL-17RA held by bead mAb J
Protocol: The method employed the Bio-Plex Workstation and software (BioRad, Hercules, Calif.), as well as reagents from Luminex® Corp. (Austin, Tex.). The manufacturers' basic protocols were followed except where noted below (see www.bio-rad.com and www.luminexcorp.com for details). […] The mouse-anti-human IgG coating was evaluated and the beads quantified by FACS. Each bead code was separately incubated with 10 ul of anti-IL-17RA antibody for 1 hour at room temperature and then washed. The beads were pooled and then dispensed to a 96-well filter plate (Millipore, Billerica, Mass., product #MSBVN1250). […] The PE-tagged monovalent antibody will detect the presence of the second mAb added to the well, but not the first mAb captured by the monovalent mouse-anti-human IgG antibody. Beads were resuspended in 120u1 PBSAT and at least 100 events/bead code were collected on the Bio-Plex workstation as per the manufacturer's recommended protocol.

muIL-17RA-FLAG-polyHis = biological target: T7, muIL-17RA-FLAG-polyHis (mouse, UniProt Q60943 32-322); experiment: Bio-Plex, His-tagged muIL-17RA on pentaHis beads, antibody titration
T7 construct: also called mouse IL-17RA; mu WT
T7 sequence (Q60943 32-322 limits assumed): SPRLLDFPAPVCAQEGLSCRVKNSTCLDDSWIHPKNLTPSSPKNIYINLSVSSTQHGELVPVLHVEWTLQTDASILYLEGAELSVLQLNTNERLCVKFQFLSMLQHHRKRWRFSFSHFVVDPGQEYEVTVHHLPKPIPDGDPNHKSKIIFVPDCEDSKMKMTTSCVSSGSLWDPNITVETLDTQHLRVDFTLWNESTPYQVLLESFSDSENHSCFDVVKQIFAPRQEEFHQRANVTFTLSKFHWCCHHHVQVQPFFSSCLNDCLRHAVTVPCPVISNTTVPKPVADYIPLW

huIL-17RA-FLAG-polyHis [7] = biological target: T1, huIL-17RA-FLAG-polyHis; experiment: binning; IL-17RA held by bead mAb I
Protocol: as §1

huIL-17RA-FLAG-polyHis [8] = biological target: T1, huIL-17RA-FLAG-polyHis; experiment: SPR Biacore 3000, mAb captured on anti-human IgG CM4 chip, soluble huIL-17RA-FLAG-polyHis as analyte, 25 C, 1:1 model
Protocol: In vitro binding of IL-17RA mAbs was assayed. The binding affinities of IL-17RA antibodies were measured by surface plasmon resonance using a Biacore 3000® instrument by standard methods known in the art. Antibody candidates were captured on CM4 chips derivatized with goat anti-human IgG (H+ L) antibody (Jackson Immuno Research, Bar Harbor, Me.). A CM4 chip coated with goat anti-human IgG (H+ L) antibody but without captured antibody was used as a reference.
Experiments were conducted at 25° C. using a 50 uL/min flow rate. Data was fit to a 1:1 Model+Local Rmax using BIAeval Software® (v4.1).

[9] = biological target: human IL-17RA, full-length, on cells (human, UniProt Q96F46 33-866); experiment: cell-based or functional assay
chimera F [10] = biological target: T8, chimera F; experiment: Bio-Plex titration on His-captured chimera; cell not bold in the scan
T8 construct: human IL-17RA extracellular domain with mouse Domain F; column head 229-319; also called Construct F
Protocol: as §2, §3

huIL-17RA-FLAG-polyHis [11] = biological target: T1, huIL-17RA-FLAG-polyHis; experiment: binning; IL-17RA held by bead mAb L
Protocol: as §1

chimera F [12] = biological target: T8, chimera F; experiment: Bio-Plex titration on His-captured chimera;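 further: binding of anti-IL-17RA antibodies (4-fold titration across about 5 logs, 1 h) to His-captured IL-17RA chimeras on multiplexed beads, MFI read as percent of maximal wild-type human IL-17RA signal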
Protocol: as §2, §3

chimera K [13] = biological target: T5, chimera K; experiment: Bio-Plex titration on His-captured chimera;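 further: binding of anti-IL-17RA antibodies (4-fold titration across about 5 logs, 1 h) to His-captured IL-17RA chimeras on multiplexed beads, MFI read as percent of maximal wild-type human IL-17RA signal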
Protocol: as §2, §3

chimera M [14] = biological target: T6, chimera M; experiment: Bio-Plex titration on His-captured chimera
Protocol: as §2, §3

[15] = biological target: T9, cynomolgus IL-17RA, on cells (cynomolgus); experiment: FACS competition: non-clonal supernatant inhibiting biotin-huIL-17A (competitor) binding to cyno IL-17RA+ CHO cells
T9 construct: whole, on cells; also called CHO-cynoIL-17RA; cyno IL-17RA+ CHO cells
Protocol: The anti-IL-17RA antibodies were characterized. Non-clonal hybridoma supernatants were prepared in volumes of 1-2 mls (the Ig concentrations were not determined for these supernatants).

normalized MFI (huIL-17RA-FLAG-polyHis [1]): 1300
normalized MFI (huIL-17RA-FLAG-polyHis [2]): 480
EC50 (chimera D): 0.059 nM
EC50 (chimera J): 0.064 nM
EC50 cell printed as zero (binding ablated) (chimera L): 0 nM
EC50 (chimera K [3]): 31.3 nM
EC50 (chimera M [4]): 1.55 nM
normalized MFI (huIL-17RA-FLAG-polyHis [5]): 4000
normalized MFI (huIL-17RA-FLAG-polyHis [6]): 2900
binding result (muIL-17RA-FLAG-polyHis): no binding
normalized MFI (huIL-17RA-FLAG-polyHis [7]): 6890
Ka (huIL-17RA-FLAG-polyHis [8]): 1.01e+08 M⁻¹
Kd (huIL-17RA-FLAG-polyHis [8]): 9.88 nM
koff (huIL-17RA-FLAG-polyHis [8]): 0.00101 s⁻¹
kon (huIL-17RA-FLAG-polyHis [8]): 102000 M⁻¹ s⁻¹
IL-17A/HFF IC50 [9]: 0.33 nM
IL-17A/lung fibroblast IC50 [9]: 0.081 nM
IL-17F/HFF IC50 [9]: 0.073 nM
EC50 (chimera F [10]): 3100 nM
normalized MFI (huIL-17RA-FLAG-polyHis [11]): 3590
B1: AMH18/AML18 (antibody, IgG2, V domains shown)
VH: QVQLVQSGAEVKKPGASVKVSCKASGYSFTDYYMHWVRQAPGQGLEWMGWMHPNSGGTDLAQRFQGRVTMTRDTSISTAYMELSRLRSDDTAVYYCARGGYCSTLSCSFYWYFDLWGRGTLVTVSS
VL: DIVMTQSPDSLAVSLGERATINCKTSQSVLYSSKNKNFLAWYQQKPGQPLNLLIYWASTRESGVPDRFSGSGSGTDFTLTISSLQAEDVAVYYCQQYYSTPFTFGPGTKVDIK
notes: human mAb from IgG2 XenoMouse mice; also called AM-18; antibody G

normalized MFI (huIL-17RA-FLAG-polyHis [1]): 1900
normalized MFI (huIL-17RA-FLAG-polyHis [2]): 6280
EC50 (chimera F [12]): 0.026 nM
EC50 (chimera K [13]): 0.017 nM
EC50 (chimera M [14]): 0.035 nM
normalized MFI (huIL-17RA-FLAG-polyHis [5]): 10200
normalized MFI (huIL-17RA-FLAG-polyHis [6]): 23
normalized MFI (huIL-17RA-FLAG-polyHis [7]): 2.5
normalized MFI (huIL-17RA-FLAG-polyHis [11]): -58
MFI [15]: 6
B2: AMH21/AML21 (antibody, IgG2, V domains shown)
VH: EVQLVESGGGSVQPGGSLRLSCAASGFTFSSYSMNWVRQAPGKGLEWVSIISSRSSIIHYADSVKGRFTISRDNAKNSLYLQMNSLRDEDTAVYYCARPKVGGGMDVWGQGTTVTVSS
VL: DIQMTQSPSSLSASVGDRVTITCRASQGISNYLAWYQQKPGKFPELLIYAASTLQSGVPSRFSGSGSGTDFTLTISSLQPEDVATYYCQKYNRAPFTFGPGTKVDIK
notes: human mAb from IgG2 XenoMouse mice; also called AM-21; antibody Q

normalized MFI (huIL-17RA-FLAG-polyHis [1]): 1060
normalized MFI (huIL-17RA-FLAG-polyHis [2]): 4020
EC50 (chimera F [12]): 0.029 nM
EC50 (chimera K [13]): 0.022 nM
EC50 (chimera M [14]): 0.04 nM
normalized MFI (huIL-17RA-FLAG-polyHis [5]): 8300
normalized MFI (huIL-17RA-FLAG-polyHis [6]): 26
normalized MFI (huIL-17RA-FLAG-polyHis [7]): 58
normalized MFI (huIL-17RA-FLAG-polyHis [11]): 15
B3: AMH20/AML20 (antibody, IgG2, V domains shown)
VH: B2 VH with S11L, I50F, S53A, I57T, H59Y
VL: B2 VL
notes: human mAb from IgG2 XenoMouse mice; also called AM-20; antibody R
